Consider 35 variants from the Human Domainome abundance scans (Beltran et al. 2025).

± gives the uncertainty stated by the source.

B1: Ankyrin-1, residues 1405 to 1484; numbered along this chain, P16157 (parent)
chain: MKMAVISEHLGLSWAELARELQFSVEDINRIRVENPNSLLEQSVALLNLWVIREGQNANMENLYTALQSIDRGEIVNMLE

Variants of B1 are the subject of the series. Put plainly: abundance fitness (aPCA) (normalised: wild type 0, dead -1); higher = more abundant; growth selection in yeast, the domain comes from the species named. The following applies: Homo sapiens.
In the case of MKMAVISEHLGLSWAELARELQFSVEDINQIRVENPNSLLEQSVALLNLWVIREGQNANMENLYTALQSIDRGEIVNMLE, the abundance fitness is -0.049 ± 0.072.

Turning to MKMAVISEHLGLSWAELARELQFSVEDINHIRVENPNSLLEQSVALLNLWVIREGQNANMENLYTALQSIDRGEIVNMLE, the abundance fitness was -0.081 ± 0.22. The same measure for MKMAVISEHLGLSWAELARELQFSVEDINTIRVENPNSLLEQSVALLNLWVIREGQNANMENLYTALQSIDRGEIVNMLE: -0.226 ± 0.086. Next, MKMAVISEHLGLSWAELARELQFSVEDINWIRVENPNSLLEQSVALLNLWVIREGQNANMENLYTALQSIDRGEIVNMLE: -0.328 ± 0.076; MKMAVISEHLGLSWAELARELQFSVEDINPIRVENPNSLLEQSVALLNLWVIREGQNANMENLYTALQSIDRGEIVNMLE: -1.1 ± 0.21; MKMAVISEHLGLSWAELARELQFSVEDINFIRVENPNSLLEQSVALLNLWVIREGQNANMENLYTALQSIDRGEIVNMLE: -0.518 ± 0.18. Next, MKMAVISEHLGLSWAELARELQFSVEDINLIRVENPNSLLEQSVALLNLWVIREGQNANMENLYTALQSIDRGEIVNMLE: -0.213 ± 0.057. On to MKMAVISEHLGLSWAELARELQFSVEDINKIRVENPNSLLEQSVALLNLWVIREGQNANMENLYTALQSIDRGEIVNMLE, for which the abundance fitness stood at 0.054 ± 0.12. The same measure for MKMAVISEHLGLSWAELARELQFSVEDINYIRVENPNSLLEQSVALLNLWVIREGQNANMENLYTALQSIDRGEIVNMLE: -0.298 ± 0.16. Next, MKMAVISEHLGLSWAELARELQFSVEDINVIRVENPNSLLEQSVALLNLWVIREGQNANMENLYTALQSIDRGEIVNMLE: -0.192 ± 0.055; MKMAVISEHLGLSWAELARELQFSVEDINNIRVENPNSLLEQSVALLNLWVIREGQNANMENLYTALQSIDRGEIVNMLE: -0.134 ± 0.071. As for MKMAVISEHLGLSWAELARELQFSVEDINCIRVENPNSLLEQSVALLNLWVIREGQNANMENLYTALQSIDRGEIVNMLE, the abundance fitness was -0.022 ± 0.12. The same measure for MKMAVISEHLGLSWAELARELQFSVEDINDIRVENPNSLLEQSVALLNLWVIREGQNANMENLYTALQSIDRGEIVNMLE: -0.122 ± 0.11.

In the case of MKMAVISEHLGLSWAELARELQFSVEDINSIRVENPNSLLEQSVALLNLWVIREGQNANMENLYTALQSIDRGEIVNMLE, the abundance fitness is -0.139 ± 0.062. Consider MKMAVISEHLGLSWAELARELQFSVEDINGIRVENPNSLLEQSVALLNLWVIREGQNANMENLYTALQSIDRGEIVNMLE, for which the abundance fitness was -0.236 ± 0.05. The same measure for MKMAVISEHLGLSWAELARELQFSVEDINEIRVENPNSLLEQSVALLNLWVIREGQNANMENLYTALQSIDRGEIVNMLE: -0.292 ± 0.13; for MKMAVISEHLGLSWAELARELQFSVEDIARIRVENPNSLLEQSVALLNLWVIREGQNANMENLYTALQSIDRGEIVNMLE: -0.062 ± 0.052.

Take MKMAVISEHLGLSWAELARELQFSVEDIPRIRVENPNSLLEQSVALLNLWVIREGQNANMENLYTALQSIDRGEIVNMLE: the abundance fitness was -0.952 ± 0.22.

MKMAVISEHLGLSWAELARELQFSVEDIKRIRVENPNSLLEQSVALLNLWVIREGQNANMENLYTALQSIDRGEIVNMLE: the abundance fitness is 0.021 ± 0.1. With MKMAVISEHLGLSWAELARELQFSVEDIIRIRVENPNSLLEQSVALLNLWVIREGQNANMENLYTALQSIDRGEIVNMLE, the abundance fitness is -0.123 ± 0.16. The same measure for MKMAVISEHLGLSWAELARELQFSVEDISRIRVENPNSLLEQSVALLNLWVIREGQNANMENLYTALQSIDRGEIVNMLE: -0.156 ± 0.062.

With MKMAVISEHLGLSWAELARELQFSVEDIMRIRVENPNSLLEQSVALLNLWVIREGQNANMENLYTALQSIDRGEIVNMLE, the abundance fitness is -0.075 ± 0.068. The same measure for MKMAVISEHLGLSWAELARELQFSVEDICRIRVENPNSLLEQSVALLNLWVIREGQNANMENLYTALQSIDRGEIVNMLE: -0.184 ± 0.12; for MKMAVISEHLGLSWAELARELQFSVEDIHRIRVENPNSLLEQSVALLNLWVIREGQNANMENLYTALQSIDRGEIVNMLE: -0.37 ± 0.2; for MKMAVISEHLGLSWAELARELQFSVEDIGRIRVENPNSLLEQSVALLNLWVIREGQNANMENLYTALQSIDRGEIVNMLE: -0.133 ± 0.049. On to MKMAVISEHLGLSWAELARELQFSVEDIDRIRVENPNSLLEQSVALLNLWVIREGQNANMENLYTALQSIDRGEIVNMLE, for which the abundance fitness was found to be 0.041 ± 0.079.

On to MKMAVISEHLGLSWAELARELQFSVEDIVRIRVENPNSLLEQSVALLNLWVIREGQNANMENLYTALQSIDRGEIVNMLE, for which the abundance fitness was -0.213 ± 0.054. For MKMAVISEHLGLSWAELARELQFSVEDILRIRVENPNSLLEQSVALLNLWVIREGQNANMENLYTALQSIDRGEIVNMLE, the abundance fitness is -0.127 ± 0.059.

As for MKMAVISEHLGLSWAELARELQFSVEDIWRIRVENPNSLLEQSVALLNLWVIREGQNANMENLYTALQSIDRGEIVNMLE, the abundance fitness is -0.148 ± 0.051. The same measure for MKMAVISEHLGLSWAELARELQFSVEDIFRIRVENPNSLLEQSVALLNLWVIREGQNANMENLYTALQSIDRGEIVNMLE: -0.376 ± 0.14. Next, MKMAVISEHLGLSWAELARELQFSVEDIQRIRVENPNSLLEQSVALLNLWVIREGQNANMENLYTALQSIDRGEIVNMLE: -0.041 ± 0.077; MKMAVISEHLGLSWAELARELQFSVEDIYRIRVENPNSLLEQSVALLNLWVIREGQNANMENLYTALQSIDRGEIVNMLE: -0.484 ± 0.16; MKMAVISEHLGLSWAELARELQFSVEDIERIRVENPNSLLEQSVALLNLWVIREGQNANMENLYTALQSIDRGEIVNMLE: -0.05 ± 0.067. Next, MKMAVISEHLGLSWAELARELQFSVEDITRIRVENPNSLLEQSVALLNLWVIREGQNANMENLYTALQSIDRGEIVNMLE: -0.005 ± 0.082. Consider MKMAVISEHLGLSWAELARELQFSVEDIRRIRVENPNSLLEQSVALLNLWVIREGQNANMENLYTALQSIDRGEIVNMLE, for which the abundance fitness was -0.007 ± 0.048.
